This passage reports Kd results from paper PMC2768378 (2009).

The target of the assay is H2A.Z-H2B (Saccharomyces cerevisiae, UniProt Q12692). In words: relaxation dispersion NMR.

B1: Chz1 (protein)
chain: SDEAKEKRELESQKESSHNKSEKSVEPKPKRRRRRNYDDYDAEVAKEETKAKNGLTKSENNGTVEDSESDMDDAKLDALMGNEGEEEEDDLAEIDTSNIITSGRRTRGKVIDYKKTAEELDKKEPSTGSKDDVGYGEKEEDDEDEEDDDFKE
By Kd is commonly meant the free concentration of one partner at which half of the binding sites on the other are occupied at equilibrium, for simple one-to-one binding. Read a low Kd as tighter binding. On to B1, for which the Kd is approximately 200 nM.
